Results reported in US20230348564A1, “ANTI-CANCER PROTEINS” (UNICHEM LABORATORIES LTD, priority 2020, published 2023).

Assays:
[1] = system: PBMC (Peripheral blood mononuclear cells); assay: cell based in vitro cytotoxicity/anti-proliferation assay (summary); conditions: normal cells
Description: The percentage cytotoxicity was calculated using the statistical tool.

[2] = system: HT-29 (Colorectal cancer); assay: Xenograft study; type: in vivo, mice
Text: (§1) The Xenograft models used were HT-29, KB, PA-1, MCF-7, PANC-1, T24 and MDA-MB-231. The basic study design for the Xenograft study was as follows: • 1. Cell maintenance and cell suspension preparation • 2. Aseptic injection of tumor cell suspension in the donor animal • 3. Randomization of animals in respective groups • 4. IP dosing of test items in predetermined doses • 5. IP administration of standard • 6. After completion of dosing period. • 7. The Tumor volume recording weekly twice while body weight and clinical signs daily.

KB (Cervical cancer) = assay: Xenograft study; type: in vivo, mice; conditions: IP
Text: as §1

MCF-7 (Breast cancer) = assay: Xenograft study; type: in vivo, mice; conditions: MCF-7 xenograft, IP
Text: as §1

[3] = system: MDA-MB-231 (Mammary gland/breast adenocarcinoma); assay: Xenograft study; type: in vivo, mice; conditions: MDA-MB-231 xenograft, IP
Text: as §1

[4] = system: PA-1 (Ovary teratocarcinoma); assay: Xenograft study; type: in vivo, mice; conditions: PA-1 xenograft, IP
Text: as §1

[5] = system: PANC-1 (Pancreas/duct epithelioid carcinoma); assay: Xenograft study; type: in vivo, mice; conditions: PANC-1 xenograft, IP
Text: as §1

[6] = system: T24 (Urinary bladder/transitional cell carcinoma); assay: Xenograft study; type: in vivo, mice; conditions: IP
Text: as §1

[7] = system: EA.hy926 (Human endothelial cells); assay: endothelial cell proliferation by MTT assay; type: cell-based; conditions: for % inhibition of FBS stimulated cell growth / Mean (MTT absorbance): 72 h
Description: The cell line used for the study was EA.hy926 (Human endothelial cells) which was procured from National Centre for Cell Science, Pune (India). The cell line was maintained in DMEM+10% FBS (heat inactivated) at 37° C. with 5% CO2, and 95% humidity. […] Untreated cells with complete medium (10% FBS) served as complete medium control, cells with sera free medium served as SFM control and the cells treated with Paclitaxel served as positive control.
The percentage cytotoxicity corresponding to each treatment was calculated.

[8] = system: VEGF release in MDA-MB-231 cells; assay: VEGF secretion in cancer cells (Human VEGF ELISA); type: cell-based; conditions: 24 h
Description: The cell lines were maintained in DMEM+10% […] (heat inactivated) at 37° C. with 5% CO2, and 95% humidity. Cells were counted and plated in 6-well plates for 24 h at a density of 0.5×10^6 cells/well. The cells were incubated overnight under growth conditions as described above so as to allow cell recovery and exponential growth. Cells were treated with each test item at different concentrations for 24h in serum free media. Doxorubicin was used as positive control. Secreted levels of VEGF were determined in supernatants after 24 hours using Human VEGF ELISA kit (R&D systems) as per manufacturer's protocol. Change in VEGF levels corresponding to each treatment was calculated using the following formula: […]

Contactin-1 = assay: biomarker levels in IOMM-Lee by multiplex analysis; type: cell-based, Human; conditions: 1 μg/mL-80 μg/mL, 48 h
Text: (§2) Effect of SEQ ID No 2 on the expression of following 7 biomarkers were estimated in Human Meningioma cell line (IOMM-Lee) using multiplex analysis: TNF-alpha, VEGF, VEGFR2, HGF, HGFR/c-MET, PDGF-BB, and Contactin-1. Levels of another marker, Notch-1 were also estimated by ELISA in the same cell line. These 8 biomarkers play very crucial role in the pathogenesis and progression of Brain Tumor. […] Supernatants were collected and the levels of these 8 markers were investigated.

HGFR/c-MET = assay: biomarker levels in IOMM-Lee by multiplex analysis; type: cell-based, Human; conditions: 1 μg/mL-80 μg/mL, 48 h
Text: as §2

HGF = assay: biomarker levels in IOMM-Lee by multiplex analysis; type: cell-based, Human; conditions: 1 μg/mL-80 μg/mL, 48 h
Text: as §2

PDGF-BB = assay: biomarker levels in IOMM-Lee by multiplex analysis; type: cell-based, Human; conditions: 1 μg/mL-80 μg/mL, 48 h
Text: as §2

TNF-α = assay: biomarker levels in IOMM-Lee by multiplex analysis; type: cell-based, Human; conditions: 1 μg/mL-80 μg/mL, 48 h
Text: as §2

VEGFR2 = assay: biomarker levels in IOMM-Lee by multiplex analysis; type: cell-based, Human; conditions: 1 μg/mL-80 μg/mL, 48 h
Text: as §2

VEGF = assay: biomarker levels in IOMM-Lee by multiplex analysis; type: cell-based, Human; conditions: 1 μg/mL-80 μg/mL, 48 h
Text: as §2

Meningioma (IOMM-Lee) = assay: cytotoxicity in Brain Tumor Cell lines by MTT assay; conditions: 72 h

B1: SEQ ID NO. 2: recombinant lectin; variant of the S. rolfsii lectin amino acid sequence (reported as Rec-2 in WO 2010/095143) (protein)
chain: TYKITVRVYQTNPDAFFHPVEKTVWKYANGGTWTITDDQHVLTMGGSGTSGTLRFHADNGESFTATFGVHNYKRWCDIVTNLAADETGMVINQQYYSQKNREEARERQLSNYQVKNAKGRNFQIVYTEAEGNDLHANLIIG
modifications: In vitro synthesis
Question: With B1 as the molecule, how does the “% Cytotoxicity” value ([1]; listed as SEQ ID NO 2) read?
Answer: Nil

Question: What about the “% Cytotoxicity” value ([1]; listed as SEQ ID No 2) of the same molecule?
Answer: did not show cytotoxic effect

Question: What about the “tumor volume in comparison with the vehicle control group, in words” value ([2]; 20 mg/Kg and 30 mg/Kg body weight (daily)) of the same molecule?
Answer: significant decrease in tumor volume

Question: What about the “Maximum Tumor Growth Inhibition (%)” value ([2]; HT-29 xenograft, IP) of the same molecule?
Answer: 56.62%

Question: And the “Tumor Volume (mm^3) (Mean ± SEM)” value ([2]; HT-29 xenograft, IP)?
Answer: 1702 ± 274 mm^3

Question: And the “Maximum Tumor Growth Inhibition (%)” value (KB (Cervical cancer))?
Answer: 60.49%

Question: And the “Tumor Volume (mm^3) (Mean ± SEM)” value (KB (Cervical cancer))?
Answer: 782 ± 92 mm^3

Question: What about the “Maximum Tumor Growth Inhibition (%)” value (MCF-7 (Breast cancer)) of the same molecule?
Answer: 69.04%

Question: What about the “Tumor Volume (mm^3) (Mean ± SEM)” value (MCF-7 (Breast cancer)) of the same molecule?
Answer: 1256 ± 132 mm^3

Question: And the “Maximum Tumor Growth Inhibition (%)” value [3]?
Answer: 35.21%

Question: And the “Tumor Volume (mm^3) (Mean ± SEM)” value [3]?
Answer: 834.80 ± 126.95 mm^3

Question: What about the “Maximum Tumor Growth Inhibition (%)” value [4] of the same molecule?
Answer: 62.15%

Question: What about the “Tumor Volume (mm^3) (Mean ± SEM)” value [4] of the same molecule?
Answer: 1050 ± 132 mm^3

Question: And the “Maximum Tumor Growth Inhibition (%)” value [5]?
Answer: 39.15%

Question: And the “Tumor Volume (mm^3) (Mean ± SEM)” value [5]?
Answer: 721.17 ± 194.63 mm^3

Question: What about the “Maximum Tumor Growth Inhibition (%)” value [6] of the same molecule?
Answer: 36.52%

Question: What about the “Tumor Volume (mm^3) (Mean ± SEM)” value [6] of the same molecule?
Answer: 551.06 ± 10.02 mm^3

Question: What about the “% inhibition of FBS stimulated cell growth” value (shortened to “% inhibition”) ([7]; 2.5 μg/mL) of the same molecule?
Answer: −9.83%

Question: What about the “Mean (MTT absorbance)” value ([7]; 2.5 μg/mL) of the same molecule?
Answer: 1.761

Question: What about the “% inhibition” value ([7]; 5 μg/mL) of the same molecule?
Answer: −12.16%

Question: And the “Mean (MTT absorbance)” value ([7]; 5 μg/mL)?
Answer: 1.799

Question: And the “% inhibition” value ([7]; 10 μg/mL)?
Answer: −16.59%

Question: What about the “Mean (MTT absorbance)” value ([7]; 10 μg/mL) of the same molecule?
Answer: 1.870

Question: And the “inhibition of endothelial cell proliferation as compared to control” value ([7]; 20 μg/mL to 100 μg/mL)?
Answer: 15.51% to 58.53%

Question: What about the “% inhibition” value ([7]; 20 μg/mL) of the same molecule?
Answer: 15.51%

Question: What about the “Mean (MTT absorbance)” value ([7]; 20 μg/mL) of the same molecule?
Answer: 1.355

Question: What about the “% inhibition” value ([7]; 40 μg/mL) of the same molecule?
Answer: 29.22%

Question: What about the “Mean (MTT absorbance)” value ([7]; 40 μg/mL) of the same molecule?
Answer: 1.135

Question: What about the “% inhibition” value ([7]; 80 μg/mL) of the same molecule?
Answer: 56.50%

Question: And the “Mean (MTT absorbance)” value ([7]; 80 μg/mL)?
Answer: 0.698

Question: What about the “% inhibition” value ([7]; 100 μg/mL) of the same molecule?
Answer: 58.53%

Question: What about the “Mean (MTT absorbance)” value ([7]; 100 μg/mL) of the same molecule?
Answer: 0.665

Question: And the “Average absorbance at 450 nM” value ([8]; 2.5 μg/mL)?
Answer: 0.970

Question: What about the “Percentage decrease in VEGF levels” value ([8]; 2.5 μg/mL) of the same molecule?
Answer: −25.0%

Question: And the “VEGF level” value ([8]; 2.5 μg/mL)?
Answer: 579.3 pg/mL

Question: And the “Average absorbance at 450 nM” value ([8]; 5 μg/mL)?
Answer: 0.763

Question: And the “Percentage decrease in VEGF levels” value ([8]; 5 μg/mL)?
Answer: 4.8%

Question: And the “VEGF level” value ([8]; 5 μg/mL)?
Answer: 441.0 pg/mL

Question: And the “Average absorbance at 450 nM” value ([8]; 10 μg/mL)?
Answer: 1.072

Question: What about the “Percentage decrease in VEGF levels” value ([8]; 10 μg/mL) of the same molecule?
Answer: −39.8%

Question: And the “VEGF level” value ([8]; 10 μg/mL)?
Answer: 647.5 pg/mL

Question: And the “Average absorbance at 450 nM” value ([8]; 20 μg/mL)?
Answer: 1.552

Question: What about the “Percentage decrease in VEGF levels” value ([8]; 20 μg/mL) of the same molecule?
Answer: −108.8%

Question: And the “VEGF level” value ([8]; 20 μg/mL)?
Answer: 967.3 pg/mL

Question: And the “Average absorbance at 450 nM” value ([8]; 80 μg/mL)?
Answer: 2.222

Question: What about the “Percentage decrease in VEGF levels” value ([8]; 80 μg/mL) of the same molecule?
Answer: −205.2%

Question: What about the “VEGF level” value ([8]; 80 μg/mL) of the same molecule?
Answer: 1413.9 pg/mL

Question: What about the “Percentage inhibition on levels of Contactin-1” value (Contactin-1) of the same molecule?
Answer: 0.3%-27.2%

Question: And the “Percentage inhibition on levels of HGFR/c-MET” value (HGFR/c-MET)?
Answer: 5.5%-19.3%

Question: What about the “Percentage inhibition on levels of HGF” value (HGF) of the same molecule?
Answer: 43.8%-93%^

Question: What about the “Percentage inhibition on levels of PDGF-BB” value (PDGF-BB) of the same molecule?
Answer: 33.6%-100%

Question: And the “Percentage inhibition on levels of TNF-α” value (TNF-α)?
Answer: 16.8%-42.3%

Question: And the “Percentage inhibition on levels of VEGFR2” value (VEGFR2)?
Answer: 17.8%-22.5%

Question: And the “Percentage inhibition on levels of VEGF” value (VEGF)?
Answer: 3.9%-49.3%

Question: What about the “% Cytotoxicity” value (MCF-7) of the same molecule?
Answer: 28.0%

Question: What about the “IC50 Value” (Meningioma (IOMM-Lee)) of the same molecule?
Answer: 18.37 µg/mL
